According to patent publication CN116082499A (DONGGUAN PENGZHI BIOTECHNOLOGY CO LTD, dated 2023):
Where a chain is given by its changes, count along the chain named.

T1: DENV-IV抗原(一种NS1蛋白，购自菲鹏) (dengue virus serotype 4 (DENV-IV), UniProt P09866 775-1126, limits assumed)
T1 construct: also called DENV-IV antigen
T1 sequence (looked up): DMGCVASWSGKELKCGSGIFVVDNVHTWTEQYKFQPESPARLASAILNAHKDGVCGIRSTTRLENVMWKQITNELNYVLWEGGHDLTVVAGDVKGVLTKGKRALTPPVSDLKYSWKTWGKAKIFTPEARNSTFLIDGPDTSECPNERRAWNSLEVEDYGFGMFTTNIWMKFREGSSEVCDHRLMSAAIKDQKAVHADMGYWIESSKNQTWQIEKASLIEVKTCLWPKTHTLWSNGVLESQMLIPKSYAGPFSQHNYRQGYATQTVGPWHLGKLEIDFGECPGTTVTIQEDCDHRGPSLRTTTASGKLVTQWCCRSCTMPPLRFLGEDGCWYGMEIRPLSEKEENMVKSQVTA

B1: DF-5M32RMb1 (antibody, mouse IgG1, kappa, V domains shown)
VH: QVQLQQSGAELARPGASVKLSCKASGYTFINYWMQWVKQRPGQGLEWIGAIYPGDGDTRYTQNFKGKAALTADKSSSTAYMQLSSLASEDSAVYYCATGTEGILDYWGQGTSVTVSS
VL: DAVMTQTPLTLSVLIGQPASLSCKSSQSLLESDGKTYLNWLFQRPGQSPKRLIYLVSKLESGVPDRFTGSGSGTEFTLKISRVEAEDLGVYYCWQATHHPLTFGTGTNLELKR
notes: also called Anti-DF 5M32; Anti-DF 5M32单克隆抗体 (recombinant)
B2: DF-5M32RMb4 (antibody, mouse IgG1, kappa, V domains shown)
VH: B1 VH with I103L
VL: B1 VL
notes: also called DF-8F13RMb4
B3: DF-5M32RMb2 (antibody, mouse IgG1, kappa, V domains shown)
VH: B1 VH with I30L, I103L
VL: B1 VL
notes: also called DF-8F13RMb2
B4: DF-5M32RMb3 (antibody, mouse IgG1, kappa, V domains shown)
VH: B1 VH with I30L
VL: B1 VL
notes: also called DF-8F13RMb3

Target: T2, DENV抗原 (DENV阳性血清) (dengue virus (DENV), serotype )
T2 construct: also called DENV antigen in DENV-positive serum
Test: sandwich ELISA, antibody at 1.5625 ng/ml captured on goat anti-mouse IgG, DENV-positive serum, HRP-labelled DENV mAb

Compared with B1, B2 is lower in “OD (450nm, 参考630nm)” value: 0.654 OD for the first, 0.631 OD for the second.

First: B3
Second: B4
The “OD (450nm, 参考630nm)” value of the first is lower: 0.603 OD for the first, 0.622 OD for the second.

Target: T2, DENV抗原 (DENV阳性血清)
Test: sandwich ELISA, antibody at 3.125 ng/ml captured on goat anti-mouse IgG, DENV-positive serum, HRP-labelled DENV mAb

First: B1
Second: B2
The “OD (450nm, 参考630nm)” value of the first is higher: 0.963 OD for the first, 0.923 OD for the second.

Compared with B3, B4 is lower in “OD (450nm, 参考630nm)” value: 0.96 OD for the first, 0.952 OD for the second.

Target: T2, DENV抗原 (DENV阳性血清)
Test: sandwich ELISA, antibody at 0 ng/ml (blank without antibody), goat anti-mouse IgG, DENV-positive serum, HRP-labelled DENV mAb

First: B1
Second: B2
The “OD (450nm, 参考630nm)” value of the first is higher: 0.039 OD for the first, 0.032 OD for the second.

Going from B3 to B4, the “OD (450nm, 参考630nm)” value rises from 0.031 OD to 0.043 OD.

Target: T1, DENV-IV抗原(一种NS1蛋白，购自菲鹏)
Test: not given

B1 and B2 are within 1.5-fold of each other in Kd: 59.6 nM for the first, 52.9 nM for the second.

B3 and B4 are within 1.5-fold of each other in Kd: 57.8 nM for the first, 63.6 nM for the second.

B1 and B2 are within 1.5-fold of each other in koff: 0.00128 s⁻¹ for the first, 0.00176 s⁻¹ for the second.

B3 and B4 are within 1.5-fold of each other in koff: 0.00184 s⁻¹ for the first, 0.00186 s⁻¹ for the second.

First: B1
Second: B2
The kon of the first is 1.6-fold lower: 21400 M⁻¹ s⁻¹ for the first, 33200 M⁻¹ s⁻¹ for the second.

B3 and B4 are within 1.5-fold of each other in kon: 31900 M⁻¹ s⁻¹ for the first, 29300 M⁻¹ s⁻¹ for the second.

Target: T2, DENV抗原 (DENV阳性血清)
Test: sandwich ELISA, antibody at 6.25 ng/ml captured on goat anti-mouse IgG, DENV-positive serum, HRP-labelled DENV mAb

Compared with B1, B2 is lower in “OD (450nm, 参考630nm)” value: 1.52 OD for the first, 1.49 OD for the second.

Going from B3 to B4, the “OD (450nm, 参考630nm)” value rises from 1.47 OD to 1.5 OD.

Target: T2, DENV抗原 (DENV阳性血清)
Test: sandwich ELISA, antibody at 12.5 ng/ml captured on goat anti-mouse IgG, DENV-positive serum, HRP-labelled DENV mAb

Going from B1 to B2, the “OD (450nm, 参考630nm)” value falls from 2.1 OD to 2.01 OD.

First: B3
Second: B4
The “OD (450nm, 参考630nm)” value of the first is higher: 2.04 OD for the first, 1.97 OD for the second.

Target: T2, DENV抗原 (DENV阳性血清)
Test: sandwich ELISA, antibody at 0.78125 ng/ml captured on goat anti-mouse IgG, DENV-positive serum, HRP-labelled DENV mAb

Going from B1 to B2, the “OD (450nm, 参考630nm)” value falls from 0.489 OD to 0.482 OD.

Going from B3 to B4, the “OD (450nm, 参考630nm)” value rises from 0.471 OD to 0.479 OD.
